Here are results for one substance from publication PMC3706390.

Among the targets are L30 L35A L35A (rat) (UniProt P62890); L30 Y89A Y89A (rat) (UniProt P62890); L30 K87A K87A (rat) (UniProt P62890); L30 K36A K36A (rat) (UniProt P62890).
Experiment in all cases: EMSA
Common to all, as to settings: 30 mM Tris-HCl pH 8.0, 75 mM KCl, 5 mM MgCl2, 1 mM DTT, 0.04 ug/uL BSA, 10% glycerol, 50 ng/uL yeast tRNA, 30 C 15 min; EMSA gels 0.5X TBE at 4 C; RNase …
On the technique in general: A gel shift assay detects complexes by their altered migration in electrophoresis.

Take PHGPx SECIS 102 nt (REMSA): the binding signal (% of WT binding) worked out at 86 with L30 L35A L35A (rat), 32 with L30 Y89A Y89A (rat), 60 with L30 K87A K87A (rat) and 78 with L30 K36A K36A (rat).
